Assays:
h-FAP-His [1] = target: T1, h-FAP-His (human, UniProt Q12884 26-760); experiment: SPR, antibody captured by anti-human IgG Fc, h-FAP-His analyte
T1 construct: range 26-760; Bought recombinant protein with a His tag; also called human FAP-His protein; FAP recombinant protein with a His tag
Description: (§1) A CM5 sensor chip was used, and HBS-EP+buffer solution (10 mM HEPES, 150 mM NaCl, 3 mM EDTA, 0.05% surfactant P20) was used as the mobile phase. An anti-human IgG (Fc) antibody was made into a […] solution in a 10 mM sodium acetate buffer solution (pH 5.0) and immobilized by amino coupling. The test antibodies were diluted in HBS-EP+buffer solution and captured by the anti-human IgG (Fc) antibody on chip channels. h-FAP-His was dissolved in HBS-EP+buffer solution to prepare an analyte, and the analyte was serially diluted 2-fold. The diluted antibodies were passed through the experimental and reference channels at a flow rate of […], with 1 min of binding and 15 min of disassociation. 10 mM Glycine pH 1.5 was passed as a regeneration buffer solution for 30 s at a flow rate of […]. Data were analyzed. […] However, the binding affinities of the other anti-FAP antibodies obtained by screening at the same time in the present disclosure, such as Ab2, Ab4 and Ab5 (sequences not shown), for the antigen are lower than that of 28H1.

mouse FAP on CHOK1 cells [2] = target: T2, mouse FAP on CHOK1 cells (mouse, UniProt P97321 1-761); experiment: FACS, percent of marked cells overexpressing mouse FAP, anti-hIgG Alexa Fluor-647 secondary antibody
T2 construct: whole, on cells; also called cell surface mouse FAP
Description: (§2) A FACS assay was used to measure the binding properties of anti-FAP antibodies on cells. The assay comprises the following steps: A CHO cell line overexpressing human FAP was constructed and plated (1E5/well). The test antibodies were added at 100 μL/well. The highest concentration was 100 nM. A 5-fold dilution was performed, yielding 8 concentrations in total. The plate was incubated at 4° C. for 1 h. Anti-hIgG Alexa Fluor-647 was added as a secondary antibody in the ratio of 1:500. The plate was incubated at 4° C. for 30 min, and a FACS assay was performed. Antibodies that bind to FAP can mark cells. The relation between the percentage of the marked cells that over-express human FAP among all cells and the antibody concentration is shown in FIG. 1. The relation between the percentage of the marked cells that over-express mouse FAP among all cells and the antibody concentration is shown in FIG. 2.

human FAP on CHO cells [3] = target: T3, human FAP on CHO cells (human, UniProt Q12884 1-760); experiment: FACS, CHO cells overexpressing human FAP
T3 construct: whole, on cells; also called CHO cell line overexpressing human FAP; CHOK1/FAP
Description: as §2

h-FAP-His [4] = target: T1, h-FAP-His; experiment: ELISA, human FAP-His coated
Description: A FAP recombinant protein with a His tag was directly used for coating. After the antibodies were added, a secondary antibody (an HRP-conjugated anti-human IgG antibody) and the HRP substrate TMB were added to measure the binding activity of the antibodies to the antigen. The assay comprises the following steps: A […] solution of human FAP-His protein was used to coat a 96-well microplate at 100 μL/well, and the plate was incubated overnight at 4° C. After a thorough wash, a blocking solution was added at 200 μL/well, and the plate was incubated at room temperature for 2 h. After a thorough wash, dilutions of test anti-FAP antibodies were added at 100 μL/well. The plate was incubated at room temperature for 1 h. After a thorough wash, a 1:20,000 dilution of an HRP-labeled goat anti-human IgG secondary antibody was added at 100 μL/well. The plate was incubated at room temperature for 1 h. After a thorough wash, TMB was added at 100 μL/well, and the plate was incubated in the dark for 15 min. 0.16 M sulfuric acid was added at 50 μL/well. The OD value at 450 nm was measured on a Thermo MultiSkanFc microplate reader, and the binding EC₅₀ values of the anti-FAP antibodies were calculated.

h-FAP-His [5] = target: T1, h-FAP-His; experiment: SPR, h-FAP-His analyte; lower end tied to Ab14 by Table 6
Description: as §1

h-CD40-His = target: T4, h-CD40-His (human, UniProt P25942 21-193); experiment: SPR (Biacore 8K), antibody captured by anti-human IgG Fc, human CD40 analyte
T4 construct: range 21-193; Bought His-tagged recombinant protein; also called human CD40 protein (Acro, CD0-H5228); human CD40
Description: (§3) The affinities of the anti-FAP/CD40 bispecific antibodies for their antigens, the human FAP protein (Acro, FAP-H5244) and the human CD40 protein (Acro, CD0-H5228), were measured by SPR (GE Healthcare; Biacore 8K). A CM5 sensor chip was used, and HBS-EP+buffer solution (10 mM HEPES, 150 mM NaCl, 3 mM EDTA, 0.05% surfactant P20) was used as the mobile phase. An anti-human IgG (Fc) antibody was immobilized by amino coupling. The test antibodies were separately diluted in HBS-EP+buffer solution as ligands and captured by the anti-human IgG (Fc) antibody on chip channels. Antigenic proteins of different species were used as analytes.

[6] = target: T5, human CD40 on cells (Raji cells; HEK-Blue CD40L cells; human dendritic cells) (human, UniProt P25942 21-277); experiment: FACS, HEK-Blue CD40L cells expressing human CD40
T5 construct: whole, on cells; One entry for untagged full-length human CD40 on cells; also called Raji cell surface human CD40; human cell surface CD40 antigen
Description: (§4) The binding of the bispecific antibodies to cell surface CD40 was measured by FACS, including HEK-Blue™CD40L cells highly expressing human CD40 (Invivogen, Cat #hkb-cd40), and HEK293 cells that were transiently transfected with cynomolgus monkey CD40 plasmids (Sino Biological, cat #CG90970-UT) and thus made to highly express cynomolgus monkey CD40. […] See FIGS. 9A, 9B and 11 and Table 21 for details.

[7] = target: T6, cynomolgus monkey CD40 on HEK293 cells (cynomolgus monkey, UniProt G7PG38 21-278); experiment: FACS, HEK293 cells transiently expressing cynomolgus monkey CD40
T6 construct: whole, on cells
Description: as §4

[8] = target: T7, human FAP protein (Acro, FAP-H5244) (human, UniProt Q12884 26-760); experiment: SPR (Biacore 8K), antibody captured by anti-human IgG Fc, human FAP analyte
T7 construct: Bought protein
Description: as §3

human FAP on CHO cells [9] = target: T3, human FAP on CHO cells; experiment: FACS, CHOK1 cells stably expressing human FAP
Description: (§5) In this experiment, the binding of the anti-FAP/CD40 bispecific antibodies to stably transfected strains of CHOK1 cells that highly express human FAP, cynomolgus monkey FAP and mouse FAP was measured by FACS.

[10] = target: T5, human CD40 on cells (Raji cells; …); experiment: flow cytometry on immature human dendritic cells (CD40)
mouse FAP on CHOK1 cells [11] = target: T2, mouse FAP on CHOK1 cells; experiment: FACS, CHOK1 cells stably expressing mouse FAP
Description: as §5

[12] = target: T8, cynomolgus monkey FAP on CHOK1 cells (cynomolgus monkey); experiment: FACS, CHOK1 cells stably expressing cynomolgus monkey FAP
T8 construct: whole, on cells
Description: as §5

T2 sequence (P97321 whole entry): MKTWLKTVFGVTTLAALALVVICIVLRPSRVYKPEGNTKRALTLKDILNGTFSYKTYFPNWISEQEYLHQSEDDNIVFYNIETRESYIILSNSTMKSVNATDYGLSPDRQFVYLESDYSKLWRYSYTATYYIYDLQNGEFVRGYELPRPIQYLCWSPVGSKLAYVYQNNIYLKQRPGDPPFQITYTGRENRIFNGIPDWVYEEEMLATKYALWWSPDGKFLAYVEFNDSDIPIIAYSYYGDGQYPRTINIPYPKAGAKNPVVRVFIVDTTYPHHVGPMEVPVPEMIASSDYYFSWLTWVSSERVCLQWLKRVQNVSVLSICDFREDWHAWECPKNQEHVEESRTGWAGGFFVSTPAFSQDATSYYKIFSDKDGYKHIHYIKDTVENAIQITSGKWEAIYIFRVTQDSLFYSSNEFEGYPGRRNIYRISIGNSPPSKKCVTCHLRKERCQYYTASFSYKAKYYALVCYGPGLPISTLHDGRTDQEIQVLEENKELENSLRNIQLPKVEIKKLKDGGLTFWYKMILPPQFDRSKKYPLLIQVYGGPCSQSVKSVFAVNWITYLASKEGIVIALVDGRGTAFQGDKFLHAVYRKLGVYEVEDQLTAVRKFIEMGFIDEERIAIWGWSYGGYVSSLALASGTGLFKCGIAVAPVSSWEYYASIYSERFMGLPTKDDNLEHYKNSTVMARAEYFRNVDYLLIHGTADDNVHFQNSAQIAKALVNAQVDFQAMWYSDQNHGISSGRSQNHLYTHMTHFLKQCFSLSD
T5 sequence (P25942 21-277): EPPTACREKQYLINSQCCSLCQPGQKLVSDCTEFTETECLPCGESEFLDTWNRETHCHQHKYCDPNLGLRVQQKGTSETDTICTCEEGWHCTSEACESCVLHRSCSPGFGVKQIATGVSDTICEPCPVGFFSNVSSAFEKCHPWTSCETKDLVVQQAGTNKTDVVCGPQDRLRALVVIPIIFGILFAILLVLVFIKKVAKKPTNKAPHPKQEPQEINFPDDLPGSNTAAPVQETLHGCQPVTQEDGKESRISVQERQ
T4 sequence (P25942 21-193 limits assumed): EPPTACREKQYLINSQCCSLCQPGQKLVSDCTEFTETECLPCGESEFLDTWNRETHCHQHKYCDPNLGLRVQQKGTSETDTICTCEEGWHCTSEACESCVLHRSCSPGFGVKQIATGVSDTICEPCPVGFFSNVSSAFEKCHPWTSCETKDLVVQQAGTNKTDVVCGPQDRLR

Kd (h-CD40-His) | koff (h-CD40-His) | kon (h-CD40-His) | EC50 [6] | Emax (MFI) [6] | EC50 [7] | Emax (MFI) [7] | Kd [8] | koff [8] | kon [8] | EC50 (human FAP on CHO cells [9]) | Emax (MFI) (human FAP on CHO cells [9]) | EC50 (read off the curve) [10] | EC50 (mouse FAP on CHOK1 cells [11]) | Emax (MFI) (mouse FAP on CHOK1 cells [11]) | EC50 [12] | Emax (MFI) [12] | also measured | Binder
 |  |  |  |  |  |  |  |  |  |  |  |  |  |  |  |  | Kd (h-FAP-His [1]): 0.365 nM; Ratio of KD of 28H1 to KD of test antibody (h-FAP-His [1]): 3.6; Ratio of Kd of 28H1 to Kd of test antibody (h-FAP-His [1]): 2.1; koff (h-FAP-His [1]): 0.000121 s⁻¹; kon (h-FAP-His [1]): 332000 M⁻¹ s⁻¹; EC50 (read off the curve) (mouse FAP on CHOK1 cells [2]): ~8 ng/mL; EC50 (human FAP on CHO cells [3]): 0.474 ng/mL; EC50 (h-FAP-His [4]): 417000 ng/mL; fold affinity over 28H1 (h-FAP-His [5]): 3 to 6 times | Ab14 (antibody, human IgG1, kappa, L234A L235A, V domains shown, Fully human, IgG1 / kappa; also called anti-FAP antibody Ab14; Ab114) VH: QVQLQQSGVEVKKPGASVTVSCRASGYSFADHFIHWVRQAPGQGFQWMGWINPNRGVTHHAQDFQGRVAMTRDMSTDTVYMELTSLRSDDTAVYYCARDASLTARPYYFYGFDVWGQGTLVTVSS VL: EIVLTQSPSSVSASVGDRVTITCRASQGISSWLAWYQQKPGKAPKLLIYAASSLQSGVPSRFSGSGSGTDFTLTISSLQPEDFATYYCQQANSFPLTFGGGTKVEIKR
141 nM | 0.0294 s⁻¹ | 209000 M⁻¹ s⁻¹ | 1.66 nM | 6250 MFI | 1.31 nM | 4930 MFI | 0.405 nM | 8.22e-05 s⁻¹ | 203000 M⁻¹ s⁻¹ | 2.51 nM | 65200 MFI | ~4 nM | 0.79 nM | 12600 MFI | 1.09 nM | 28200 MFI |  | Ab10-A297V3-2 (bispecific antibody, human IgG1, kappa, L234A L235A, Ab10 IgG1 (L234A/L235A) with one A297V3 VHH on each heavy chain C-terminus; divalent for CD40; also called Ab0-A297V3-2) heavy: not shown light: DIQMTQSPSSVSASVGDRVTITCRASQGISSWLAWYQQKPGKAPKLLIYAASSLQSGVPSRFSGSGSGTDFTLTISSLQPEDFATYYCQQANSFPPAFGQGTKVEIKRTVAAPSVFIFPPSDEQLKSGTASVVCLLNNFYPREAKVQWKVDNALQSGNSQESVTEQDSKDSTYSLSSTLTLSKADYEKHKVYACEVTHQGLSSPVTKSFNRGEC
262 nM | 0.137 s⁻¹ | 524000 M⁻¹ s⁻¹ | 0.94 nM | 5080 MFI | 0.88 nM | 5120 MFI | 0.378 nM | 6.96e-05 s⁻¹ | 184000 M⁻¹ s⁻¹ | 1.57 nM | 53800 MFI | ~1 nM | 1.65 nM | 12700 MFI | 1.35 nM | 32500 MFI |  | Ab10-A297V3-4 (bispecific antibody, human IgG1, kappa, L234A L235A, Ab10 IgG1 (L234A/L235A) with two A297V3 VHHs in tandem on each heavy chain C-terminus; tetravalent for CD40; also called Ab0-A297V3-4) heavy: not shown light: DIQMTQSPSSVSASVGDRVTITCRASQGISSWLAWYQQKPGKAPKLLIYAASSLQSGVPSRFSGSGSGTDFTLTISSLQPEDFATYYCQQANSFPPAFGQGTKVEIKRTVAAPSVFIFPPSDEQLKSGTASVVCLLNNFYPREAKVQWKVDNALQSGNSQESVTEQDSKDSTYSLSSTLTLSKADYEKHKVYACEVTHQGLSSPVTKSFNRGEC

From US20250051467A1 (JIANGSU HENGRUI PHARMACEUTICALS, published 2025)
